We go through 45 variants from the Human Domainome abundance scans (Beltran et al. 2025).

± gives the uncertainty stated by the source.

The chains are these.
B1: Death-inducer obliterator 1, residues 263 to 321; numbered along this chain, Q9BTC0 (parent)
chain: GYDPNALYCICRQPHNNRFMICCDRCEEWFHGDCVGISEARGRLLERNGEDYICPNCTI

The series covers variants of B1. The series can be described thus: abundance fitness (aPCA) (normalised: wild type 0, dead -1); higher = more abundant; growth selection in yeast, the domain comes from the species named. Particulars: Homo sapiens.
Take GYDRNALYCICRQPHNNRFMICCDRCEEWFHGDCVGISEARGRLLERNGEDYICPNCTI: the abundance fitness came to 0.076 ± 0.062.
The result for GYDFNALYCICRQPHNNRFMICCDRCEEWFHGDCVGISEARGRLLERNGEDYICPNCTI reads 0.264 ± 0.17; that for GYDMNALYCICRQPHNNRFMICCDRCEEWFHGDCVGISEARGRLLERNGEDYICPNCTI, 0.021 ± 0.059.
The result for GYDCNALYCICRQPHNNRFMICCDRCEEWFHGDCVGISEARGRLLERNGEDYICPNCTI reads 0.063 ± 0.084.
Then GYDENALYCICRQPHNNRFMICCDRCEEWFHGDCVGISEARGRLLERNGEDYICPNCTI, with -0.213 ± 0.23.
For the variant GYDGNALYCICRQPHNNRFMICCDRCEEWFHGDCVGISEARGRLLERNGEDYICPNCTI, the abundance fitness is -0.122 ± 0.067.
Take GYDYNALYCICRQPHNNRFMICCDRCEEWFHGDCVGISEARGRLLERNGEDYICPNCTI: the abundance fitness was -0.258 ± 0.19.
GYDPRALYCICRQPHNNRFMICCDRCEEWFHGDCVGISEARGRLLERNGEDYICPNCTI: the abundance fitness was -0.211 ± 0.063.
The result for GYDPQALYCICRQPHNNRFMICCDRCEEWFHGDCVGISEARGRLLERNGEDYICPNCTI reads -0.112 ± 0.085.
Turning to GYDPIALYCICRQPHNNRFMICCDRCEEWFHGDCVGISEARGRLLERNGEDYICPNCTI, the abundance fitness is -0.242 ± 0.11.
GYDPAALYCICRQPHNNRFMICCDRCEEWFHGDCVGISEARGRLLERNGEDYICPNCTI: the abundance fitness is -0.413 ± 0.092.
Then GYDPCALYCICRQPHNNRFMICCDRCEEWFHGDCVGISEARGRLLERNGEDYICPNCTI, with -0.497 ± 0.11; and GYDPSALYCICRQPHNNRFMICCDRCEEWFHGDCVGISEARGRLLERNGEDYICPNCTI, with -0.259 ± 0.069; and GYDPMALYCICRQPHNNRFMICCDRCEEWFHGDCVGISEARGRLLERNGEDYICPNCTI, with -0.113 ± 0.093.
For GYDPYALYCICRQPHNNRFMICCDRCEEWFHGDCVGISEARGRLLERNGEDYICPNCTI, the abundance fitness is -0.623 ± 0.16.
In the case of GYDPFALYCICRQPHNNRFMICCDRCEEWFHGDCVGISEARGRLLERNGEDYICPNCTI, the abundance fitness was -0.189 ± 0.13.
Then GYDPKALYCICRQPHNNRFMICCDRCEEWFHGDCVGISEARGRLLERNGEDYICPNCTI, with -0.23 ± 0.11; and GYDPVALYCICRQPHNNRFMICCDRCEEWFHGDCVGISEARGRLLERNGEDYICPNCTI, with -0.186 ± 0.13; and GYDPEALYCICRQPHNNRFMICCDRCEEWFHGDCVGISEARGRLLERNGEDYICPNCTI, with -0.184 ± 0.1.
Take GYDPDALYCICRQPHNNRFMICCDRCEEWFHGDCVGISEARGRLLERNGEDYICPNCTI: the abundance fitness is 0.004 ± 0.072.
Then GYDPWALYCICRQPHNNRFMICCDRCEEWFHGDCVGISEARGRLLERNGEDYICPNCTI, with -0.793 ± 0.32; and GYDPLALYCICRQPHNNRFMICCDRCEEWFHGDCVGISEARGRLLERNGEDYICPNCTI, with -0.331 ± 0.084; and GYDPHALYCICRQPHNNRFMICCDRCEEWFHGDCVGISEARGRLLERNGEDYICPNCTI, with -0.433 ± 0.11.
Then GYDPTALYCICRQPHNNRFMICCDRCEEWFHGDCVGISEARGRLLERNGEDYICPNCTI, with -0.319 ± 0.082; and GYDPGALYCICRQPHNNRFMICCDRCEEWFHGDCVGISEARGRLLERNGEDYICPNCTI, with -0.273 ± 0.1.
With GYDPPALYCICRQPHNNRFMICCDRCEEWFHGDCVGISEARGRLLERNGEDYICPNCTI, the abundance fitness was -0.796 ± 0.2.
Then GNDPNALYCICRQPHNNRFMICCDRCEEWFHGDCVGISEARGRLLERNGEDYICPNCTI, with 0.269 ± 0.15.
Regarding GSDPNALYCICRQPHNNRFMICCDRCEEWFHGDCVGISEARGRLLERNGEDYICPNCTI, the abundance fitness is 0.116 ± 0.083.
In the case of GEDPNALYCICRQPHNNRFMICCDRCEEWFHGDCVGISEARGRLLERNGEDYICPNCTI, the abundance fitness was found to be 0.347 ± 0.12.
The result for GADPNALYCICRQPHNNRFMICCDRCEEWFHGDCVGISEARGRLLERNGEDYICPNCTI reads -0.03 ± 0.091; that for GMDPNALYCICRQPHNNRFMICCDRCEEWFHGDCVGISEARGRLLERNGEDYICPNCTI, 0.161 ± 0.1.
On to GDDPNALYCICRQPHNNRFMICCDRCEEWFHGDCVGISEARGRLLERNGEDYICPNCTI, for which the abundance fitness is -0.03 ± 0.16.
Then GLDPNALYCICRQPHNNRFMICCDRCEEWFHGDCVGISEARGRLLERNGEDYICPNCTI, with 0.342 ± 0.06.
GGDPNALYCICRQPHNNRFMICCDRCEEWFHGDCVGISEARGRLLERNGEDYICPNCTI: the abundance fitness was found to be 0.165 ± 0.085.
The result for GPDPNALYCICRQPHNNRFMICCDRCEEWFHGDCVGISEARGRLLERNGEDYICPNCTI reads 0.102 ± 0.1; that for GCDPNALYCICRQPHNNRFMICCDRCEEWFHGDCVGISEARGRLLERNGEDYICPNCTI, 0.039 ± 0.098.
Regarding GKDPNALYCICRQPHNNRFMICCDRCEEWFHGDCVGISEARGRLLERNGEDYICPNCTI, the abundance fitness came out at 0.191 ± 0.12.
As for GIDPNALYCICRQPHNNRFMICCDRCEEWFHGDCVGISEARGRLLERNGEDYICPNCTI, the abundance fitness is 0.298 ± 0.16.
GFDPNALYCICRQPHNNRFMICCDRCEEWFHGDCVGISEARGRLLERNGEDYICPNCTI: the abundance fitness is 0.351 ± 0.1.
Then GHDPNALYCICRQPHNNRFMICCDRCEEWFHGDCVGISEARGRLLERNGEDYICPNCTI, with 0.156 ± 0.09.
The result for GVDPNALYCICRQPHNNRFMICCDRCEEWFHGDCVGISEARGRLLERNGEDYICPNCTI reads -0.112 ± 0.19; that for GQDPNALYCICRQPHNNRFMICCDRCEEWFHGDCVGISEARGRLLERNGEDYICPNCTI, 0.161 ± 0.18; that for GRDPNALYCICRQPHNNRFMICCDRCEEWFHGDCVGISEARGRLLERNGEDYICPNCTI, 0.211 ± 0.07.
Then GYDPNDLYCICRQPHNNRFMICCDRCEEWFHGDCVGISEARGRLLERNGEDYICPNCTI, with -0.434 ± 0.12; and GYDPNELYCICRQPHNNRFMICCDRCEEWFHGDCVGISEARGRLLERNGEDYICPNCTI, with -0.328 ± 0.21.
